Series [1] relates to Frings audiogenic seizure-susceptible mice. The following applies: mouse, in vivo.
Series [2] shares this test system. The note with it: for PI / P.I.: Frings audiogenic seizure-susceptible; for PI / ED50 nmol / P.I. / ED50: mouse, in vivo.
The next series concerns the target NMDA receptor. Put plainly: spermine-stimulated [3H]MK-801 binding assay, inhibition.
The mark [3] stands for this setting: Frings audiogenic seizure-susceptible.

“And” between values parts separate entries of the source, which are not always exact repeats. Equal entries are not always repeated. Where two headings read alike, the source gives them in different places. A value given as a limit tells only on which side of the number the result lay.

`Nc1nnc(-c2cccc(Cl)c2Cl)c(N)n1` [Lamotrigine, reference compound]: the TD50 nmol in series [1] (setting [3]) is on record as >290 nmol. Besides, in series [2], the PI is listed as >2.0 and the ED50 nmol was 146 nmol.
A^10 Con G (peptide) yielded an IC50 with NMDA receptor of 1100 nM.
In the series with NMDA receptor, A^14 Con G (peptide) showed an IC50 of 160 nM.
Turning to `CCCC(CCC)C(=O)O` [Valproic Acid, reference compound], the TD50 in series [1] (setting [3]) was >6000 <12,000. Further, in series [2], the P.I. is on record as 1.1-2.2, the PI is 1.1-2.2, the ED50 nmol came out at 566 nmol and the ED50 came to 5644 nmols.
As for Sp^14 Con G (peptide), in the series with NMDA receptor, the half-maximal inhibitory concentration (IC50) was found to be 1590 nM.
The same measure, in the same setting: the figure for (A^7,10)1-13 Con G (peptide) is 253 nM; for (A^7,10,14)1-15 Con G (peptide) it is 34 nM.
For the molecule `NC(=O)OCC(COC(N)=O)c1ccccc1` [Felbamate, reference compound], the TD50 nmol entry in series [1] was “no marked toxicity”. Also, the “protected (number/tested) printed in ED50 column” value in series [2] (30 min) is 5/8 protected at 525 and 4/8 protected at 630.
Molecule Sp^10 Con G (peptide) registered a half-maximal inhibitory concentration (IC50) with NMDA receptor of 560 nM.
Same read-out and setting: next, A^7,Y^10 Con G (peptide): 79 nM.
On the same count and under the same terms, the figure for A^4 Con G (peptide) is > 20000 nM.
Consider (A^7,10,14)1-14 Con G (peptide), for which, in the series with NMDA receptor, the IC50 stood at 232 nM.
Same read-out and setting: next, S^4 Con G (peptide): > 20000 nM.
Still for that read-out and setting: the figure for Sp^4 Con G (peptide) is > 20000 nM; for (A^7,10,14)1-16 Con G (peptide) it is 37 nM.
In series [1] (setting [3]), `CCC1(c2ccccc2)C(=O)NC(=O)NC1=O` [Phenobarbitol, reference compound] showed a TD50 nmol of 68.8 nmol. In addition, in series [2], the PI came out at 0.5 and the ED50 nmol was found to be 145 nmol.
With Y^3 Con G (peptide), the IC50 with NMDA receptor worked out at 960 nM.
On the same count and under the same terms, next, (A^7,10)1-12 Con G (peptide): 300 nM; A^7,10,14 Con G (peptide): 88 nM; E^7,10,14 Con G (peptide): > 20000 nM.
In turn, `C[C@]12N[C@H](Cc3ccccc31)c1ccccc12` [MK801, dizocilpine, reference compound] yielded a TD50 in series [1] (setting [3]) of 1.227 nmols. In series [2], this molecule yielded a P.I. of 1.9 and an ED50 of 0.641 nmols.
Sp^7 Con G (peptide): the IC50 in the series with NMDA receptor stood at 1200 nM.
S^14 Con G (peptide): the IC50 with NMDA receptor amounted to 160 nM.
In turn, S^3 Con G (peptide) registered a half-maximal inhibitory concentration (IC50) with NMDA receptor of 3600 nM.
Same read-out and setting: next, Sp^3 Con G (peptide): 900 nM.
For the molecule `CC1(C)O[C@@H]2[C@@H](CO[C@@]3(COS(N)(=O)=O)OC(C)(C)O[C@@H]23)O1` [Topiramate, reference compound], the TD50 nmol entry in series [1] is given as “no marked toxicity”. The ED50 nmol in series [2] was >150 nmol.
As to S^7 Con G (peptide), in the series with NMDA receptor, the IC50 stood at 250 nM.
Same read-out and setting: next, A^3 Con G (peptide): 9100 nM.
Still for that read-out and setting: the figure for S^10 Con G (peptide) is 1800 nM.
Take E^4 Con G (peptide): the IC50 with NMDA receptor was > 20000 nM.
On to `CC(C(O)c1ccc(O)cc1)N1CCC(Cc2ccccc2)CC1` (stereo not shown) [Ifenprodil, reference compound], for which the TD50 in series [1] (setting [3]) is listed as <25 nmols. Further, in series [2], the P.I. is on record as <1 and the ED50 result is given as “˜25 nmols”.
As for Y^7 Con G (peptide), in the series with NMDA receptor, the IC50 worked out at 960 nM.

What is called IC50 is the concentration needed to halve the response being measured.

(Values after US6515103B1 (priority 1996, dated 2003).)
